system: K4 kissing-loop RNA reporter; assay: apparent KD of K4 kissing-loop reporter; higher = weaker reporter binding; settings: Eterna round: R107; input ligand: FMN 200 uM
Method: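 RNA-MaP round R107: designed RNA switches with theophylline, tryptophan, arginine or FMN aptamers are transcribed on-chip within common flanks. They are titrated with a labelled K4 kissing-loop RNA reporter in RNA-MaP buffer (100 mM Tris pH 7.5, 80 mM KCl, 4 mM MgCl2), without ligand or with the indicated ligand. Median apparent KD per design.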
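Also: bound reporter read as fluorescence of individual clusters on recovered sequencing chips by microscopy, with normalized cluster intensities fitted with a binding model.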

| Sequence | apparent KD of K4 kissing-loop reporter [nM] |
| --- | --- |
| AUUGAACAAGUGAUGUUUGUAUUUUCCGAAGGAGCGUCUAAUAAGACAGGUAGGUCGCGGUUUCUCUUAAUAAUCAGGUCUUUAA [JR_Nu_ExcArginiA_Sub021] | 279 |
| UGUAAGCGCGUAGAUACCAGCAAACGAGUGAUGUUCAAAAGAUUAAGGAAAAGAAAGUAAUGCCCUUGGCAGCUAAUCAUAAGCG [whbob_Ex_Theo_B_sa91] | 304 |
| UCUAGUUCUACGGCCGCCACUAUCGAGCACGGGUAUUAGUGAUGUUGAGGUCGUGUCUCCCUCCCUAGGACCGGGUAGAUCUUAG [theeternabot_sameState_KL_Trp_B_4] | 890 |
| AGGGAUGAUGGAUAAAUAAACAAAGGAGAUACCAGUCAAAUAAUAGGCCCUUGGCAGCUUCAGAUCAGUGAUGUUGAAGAUAUUG [#09 K4 Theophylline A Same State] | 109 |
| UGUGAACAAAAGUAGAGUGGACCACUAUAGCGAGGACCGGUACGGCCGCCACUCGUAUAUAAAUUCAGUGAUGUUGAAAAGAGCU [Exclusion Tryptophan A GF1] | 175 |
| AAUGUAUUCCACAUGAGUGAUGUUCAUGUGCGAGGACCGGUACGGCCGCCACUCGCAGUUGUGAUCAGUUCUGAAUACAUUAAUG [KL-XTryp-A3] | 229 |
| AAGGUAUCACCAACAUUGCAAGAAGGUGAUACCAGCAUCGAAAGAUGCCCUUGGCAGCACCAACUUGCAGUGAUGUUGCAAGUAA [(T)'-(H)'-(T1)-(T2)-(H1)-(H2)_Design8] | 274 |
| AAUAACUAGUAUAUUUUUAAUAAUACAGAUACCAGUGAUAAUAAACACCCUUGGCAGCUGAUCGAGUGAUGUUCGUUUAUUUUAA [JR_SSTheophyA_Sub002] | 84 |
| AUUUUUUUGUCAGGAUAUUAGUGUGGGUUUGGUUUGUUAGUGAUGUUGAUAUUUGGUUUAUGUAUUUAAGAAGGGAUUUAGCGGU [frrvemullin] | 563 |
| AGUGAUAUAUGAGGAUAUGGGUUUGUUAAUGAGUUAUUUUUAGUGUUGUUUGGUUAGUGAUGUUAUUUAGAAGGCGUGAGUGAUG [rrwswwmjmullin] | 93.7 |
| AGAGUUAUGCGAGGAUAUGCGGUUAGUACUCAAAGAGUACUAACGCAGAGUGAUGUUCUGUGAAACACAGAAGGUGCAUAACUCA [Omei KL FMN B SS B v2] | 950 |
| AAAUGUUUGUAUUUGAACAAUUUCUUUAGGGAGGAUAUUGGUAAUACAAGAAGGCCCUGAUGGGAGUGAUGUUCCCAUAACGCGG [Exclusion FMN A GF15] | 46.7 |
| AAGACUGCAGGAAGGAGCGGCGGACGGAGUGAUGUUCCGGCUAGUGAUGUUAGCAAACACCGCCAGGUAGGUCGCCUGUUGCUCU [Same State Arginine B GF7] | 113 |
| ACGUAGUUCUAGGAUACCAGCCAAGGCGCAGGACAAAAGUCCUGCGUCGCCAGUGAUGUUGGCCCUUGGCAGCCUAGAACUACGA [Omei KL Theo B Exc B v12] | 334 |
| UGAUACCAGGCGGCCGCCACUCCUACAGGUCAAAGACCUGUAAAACUGGUUUUUUAGUGAUGUUGGAGGACCGGGCCUGGUAUCU [FiskerMod 28 - Jieux - Exclusion - Tryptophan B] | 181 |
| GAAAGGAGUGAUGUUCCUGAUAAUUUUAUGAAGGAUAUUCGAUGUGGAAGAAGGUCAUGCAGGCAGCAAGGUUGCGAUCAUAUCA [theeternabot_exclusion_KL_FMN_A_40] | 131 |
| AGACUACCACACUGUCAAUAGACAGUGAACUCGGAUAUGCUGAUAAGCAGAAGGAGUGAUGUUCCCAGGUAGUCAAUAAAAUAAU [FmnAX 13 C32+C66] | 135 |

same assay, conditions: Eterna round: R107; input ligand: arginine 13.2 mM

| Sequence | apparent KD of K4 kissing-loop reporter [nM] |
| --- | --- |
| AUUGAACAAGUGAUGUUUGUAUUUUCCGAAGGAGCGUCUAAUAAGACAGGUAGGUCGCGGUUUCUCUUAAUAAUCAGGUCUUUAA [JR_Nu_ExcArginiA_Sub021] | 287 |
| UGUAAGCGCGUAGAUACCAGCAAACGAGUGAUGUUCAAAAGAUUAAGGAAAAGAAAGUAAUGCCCUUGGCAGCUAAUCAUAAGCG [whbob_Ex_Theo_B_sa91] | 316 |
| UCUAGUUCUACGGCCGCCACUAUCGAGCACGGGUAUUAGUGAUGUUGAGGUCGUGUCUCCCUCCCUAGGACCGGGUAGAUCUUAG [theeternabot_sameState_KL_Trp_B_4] | 482 |
| AGGGAUGAUGGAUAAAUAAACAAAGGAGAUACCAGUCAAAUAAUAGGCCCUUGGCAGCUUCAGAUCAGUGAUGUUGAAGAUAUUG [#09 K4 Theophylline A Same State] | 67.1 |
| UGUGAACAAAAGUAGAGUGGACCACUAUAGCGAGGACCGGUACGGCCGCCACUCGUAUAUAAAUUCAGUGAUGUUGAAAAGAGCU [Exclusion Tryptophan A GF1] | 283 |
| AAUGUAUUCCACAUGAGUGAUGUUCAUGUGCGAGGACCGGUACGGCCGCCACUCGCAGUUGUGAUCAGUUCUGAAUACAUUAAUG [KL-XTryp-A3] | 225 |
| AAGGUAUCACCAACAUUGCAAGAAGGUGAUACCAGCAUCGAAAGAUGCCCUUGGCAGCACCAACUUGCAGUGAUGUUGCAAGUAA [(T)'-(H)'-(T1)-(T2)-(H1)-(H2)_Design8] | 210 |
| AAUAACUAGUAUAUUUUUAAUAAUACAGAUACCAGUGAUAAUAAACACCCUUGGCAGCUGAUCGAGUGAUGUUCGUUUAUUUUAA [JR_SSTheophyA_Sub002] | 74.6 |
| AUUUUUUUGUCAGGAUAUUAGUGUGGGUUUGGUUUGUUAGUGAUGUUGAUAUUUGGUUUAUGUAUUUAAGAAGGGAUUUAGCGGU [frrvemullin] | 359 |
| AGUGAUAUAUGAGGAUAUGGGUUUGUUAAUGAGUUAUUUUUAGUGUUGUUUGGUUAGUGAUGUUAUUUAGAAGGCGUGAGUGAUG [rrwswwmjmullin] | 89.4 |
| AGAGUUAUGCGAGGAUAUGCGGUUAGUACUCAAAGAGUACUAACGCAGAGUGAUGUUCUGUGAAACACAGAAGGUGCAUAACUCA [Omei KL FMN B SS B v2] | 116 |
| AAAUGUUUGUAUUUGAACAAUUUCUUUAGGGAGGAUAUUGGUAAUACAAGAAGGCCCUGAUGGGAGUGAUGUUCCCAUAACGCGG [Exclusion FMN A GF15] | 83.9 |
| AAGACUGCAGGAAGGAGCGGCGGACGGAGUGAUGUUCCGGCUAGUGAUGUUAGCAAACACCGCCAGGUAGGUCGCCUGUUGCUCU [Same State Arginine B GF7] | 116 |
| ACGUAGUUCUAGGAUACCAGCCAAGGCGCAGGACAAAAGUCCUGCGUCGCCAGUGAUGUUGGCCCUUGGCAGCCUAGAACUACGA [Omei KL Theo B Exc B v12] | 302 |
| UGAUACCAGGCGGCCGCCACUCCUACAGGUCAAAGACCUGUAAAACUGGUUUUUUAGUGAUGUUGGAGGACCGGGCCUGGUAUCU [FiskerMod 28 - Jieux - Exclusion - Tryptophan B] | 108 |
| GAAAGGAGUGAUGUUCCUGAUAAUUUUAUGAAGGAUAUUCGAUGUGGAAGAAGGUCAUGCAGGCAGCAAGGUUGCGAUCAUAUCA [theeternabot_exclusion_KL_FMN_A_40] | 158 |
| AGACUACCACACUGUCAAUAGACAGUGAACUCGGAUAUGCUGAUAAGCAGAAGGAGUGAUGUUCCCAGGUAGUCAAUAAAAUAAU [FmnAX 13 C32+C66] | 111 |

same assay, conditions: Eterna round: R107; input ligand: none

| Sequence | apparent KD of K4 kissing-loop reporter [nM] |
| --- | --- |
| AUUGAACAAGUGAUGUUUGUAUUUUCCGAAGGAGCGUCUAAUAAGACAGGUAGGUCGCGGUUUCUCUUAAUAAUCAGGUCUUUAA [JR_Nu_ExcArginiA_Sub021] | 279 |
| UGUAAGCGCGUAGAUACCAGCAAACGAGUGAUGUUCAAAAGAUUAAGGAAAAGAAAGUAAUGCCCUUGGCAGCUAAUCAUAAGCG [whbob_Ex_Theo_B_sa91] | 449 |
| UCUAGUUCUACGGCCGCCACUAUCGAGCACGGGUAUUAGUGAUGUUGAGGUCGUGUCUCCCUCCCUAGGACCGGGUAGAUCUUAG [theeternabot_sameState_KL_Trp_B_4] | 667 |
| AGGGAUGAUGGAUAAAUAAACAAAGGAGAUACCAGUCAAAUAAUAGGCCCUUGGCAGCUUCAGAUCAGUGAUGUUGAAGAUAUUG [#09 K4 Theophylline A Same State] | 139 |
| UGUGAACAAAAGUAGAGUGGACCACUAUAGCGAGGACCGGUACGGCCGCCACUCGUAUAUAAAUUCAGUGAUGUUGAAAAGAGCU [Exclusion Tryptophan A GF1] | 215 |
| AAUGUAUUCCACAUGAGUGAUGUUCAUGUGCGAGGACCGGUACGGCCGCCACUCGCAGUUGUGAUCAGUUCUGAAUACAUUAAUG [KL-XTryp-A3] | 219 |
| AAGGUAUCACCAACAUUGCAAGAAGGUGAUACCAGCAUCGAAAGAUGCCCUUGGCAGCACCAACUUGCAGUGAUGUUGCAAGUAA [(T)'-(H)'-(T1)-(T2)-(H1)-(H2)_Design8] | 267 |
| AAUAACUAGUAUAUUUUUAAUAAUACAGAUACCAGUGAUAAUAAACACCCUUGGCAGCUGAUCGAGUGAUGUUCGUUUAUUUUAA [JR_SSTheophyA_Sub002] | 93.3 |
